# In US10669350B2, “Antigen-binding constructs that bind to and inhibit catalase and/or superoxide dismutase as well as pharmaceutical compositions containing them for tumor therapy” (priority 2015, dated 2020):
# T1: human catalase (Homo sapiens, UniProt P04040)
# T1 sequence (P04040 2-527 limits assumed): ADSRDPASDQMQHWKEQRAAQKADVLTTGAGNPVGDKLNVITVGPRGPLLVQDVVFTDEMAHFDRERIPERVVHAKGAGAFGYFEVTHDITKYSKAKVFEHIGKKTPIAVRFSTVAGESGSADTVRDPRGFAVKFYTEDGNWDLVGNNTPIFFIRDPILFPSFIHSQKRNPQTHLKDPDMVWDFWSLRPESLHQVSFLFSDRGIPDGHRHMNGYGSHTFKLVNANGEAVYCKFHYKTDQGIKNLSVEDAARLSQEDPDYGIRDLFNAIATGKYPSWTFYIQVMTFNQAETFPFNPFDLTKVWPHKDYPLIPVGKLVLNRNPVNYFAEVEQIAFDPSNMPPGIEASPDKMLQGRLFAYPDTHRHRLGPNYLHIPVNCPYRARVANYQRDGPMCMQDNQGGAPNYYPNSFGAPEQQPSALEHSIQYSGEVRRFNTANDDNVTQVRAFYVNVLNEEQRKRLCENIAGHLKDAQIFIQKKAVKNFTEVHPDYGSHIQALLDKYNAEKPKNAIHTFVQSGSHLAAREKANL
# B1: aSODcb0987: single domain VHH fragment binding to human SOD1, but not neutralizing; SEQ ID NO: 14 (protein)
# VHH: MAQVQLVESGGGIVQPGGSLRLSCVASESISEIDAMYWHRQAPGKERELVAGITNDGTRYYADSVKGRFTISRDNAKSTLYLQMNSLKFEDTAMYYCAALPNPPPGYWGQGTQVTVSSKKKHHHHHH
# modifications: SOD binding
# B2: aCATcb0972: single domain VHH fragment that binds to and neutralizes human catalase; SEQ ID NO: 10 (protein)
# VHH: MAQVQLVESGGGLVQAGGSLRLSCAASERTFNTYGMGWFRQAPGKEREFVATISWSGDSTYYADSVKGRFTISRDNAKNTMYLQMNSLKPEDTAVYYCNANSEYGDSYWGQGTQVTVSSKKKHHHHHH
# modifications: catalase binding
# Assays:
# human SOD1 [1] = molecular target: T2, human SOD1 (Homo sapiens, UniProt P00441); test: Check for inhibition (neutralization) of SOD, ROS-dependent apoptosis induction and HOCl control trial; assay type: cell-based; set-up: endogenous in cells; host or cells: MKN-45 human gastric carcinoma cells
# Source text: Thus, the inhibition of the SOD mediated by single domain VHH or Fab fragments (comparison) can be determined by the fact that the apoptosis induction of tumor cells by exogenously added HOCl is employed as the test system. HOCl in a concentration depending manner induces apoptosis that is based on the interaction between HOCl and superoxide anions that results in the formation of aggressive hydroxyl radicals (Bauer G. HOCl-dependent singlet oxygen and hydroxyl radical generation modulate and induce apoptosis of malignant cells. Anticancer Res 33: 3589-3602, 2013). […] That is, the neutralizing effect of single domain VHH or Fab fragments can be determined by checking whether the inhibition of the apoptosis is abolished again by the single domain VHH or Fab fragments to be tested. The quantitative employment of said test system requires linking several simple steps the skilled person is familiar with. In the first step the concentration of commercially available HOCl (or sodium hypochlorite that sufficiently forms HOCl in medium) is determined that generates a significant quantifiable apoptosis signal within a reasonable trial time (1-2 hours). […] As soon as the first two steps have been satisfactorily performed there can take place the actual test of the inhibiting effect of the single domain VHH or Fab fragments. For that, selected concentrations of the fragments to be tested are pre-incubated for 20 minutes with the optimal concentration of SOD determined in advance in step #2. Subsequently, said mixture is added to the test cells. Thereafter, HOCl is added and the apoptosis induction is determined. […]
# The preparation was by immunizing alpacas with human SOD1 (SOD1=Cu/ZnSOD [EC 1.15.1.1] purified from human erythrocytes, obtained from Sigma (Schnelldorf), catalogue number S 9636) under supervision of a veterinary, obtaining RNA from the B cells of the animals, reverse transcription, cloning in E. coli and isolation via the phage display technology. […] In the following, this is expressed as ROS-dependent apoptosis induction. […]
# human SOD1 [2] = molecular target: T2, human SOD1; test: ELISA selection of clones binding to human SOD1
# Source text: The preparation was by immunizing alpacas with human SOD1 (SOD1=Cu/ZnSOD [EC 1.15.1.1] purified from human erythrocytes, obtained from Sigma (Schnelldorf), catalogue number S 9636) under supervision of a veterinary, obtaining RNA from the B cells of the animals, reverse transcription, cloning in E. coli and isolation via the phage display technology. […] In a second run, by employing the cell culture system described by Heinzelmann and Bauer (Multiple protective functions of catalase against intercellular apoptosis-inducing ROS signaling of human tumor cells, Biol. Chem. 391, 675-693, 2010) it was checked which of the single domain VHH fragments binding to SOD actually results in an inhibition of SOD, what is expressed in the tumor system used as ROS-dependent apoptosis induction in the cells, since by the inhibition of SOD the concentration of free superoxide anions dramatically increases due to the absence of the enzymatic dismutation and results in a parallel indirect inhibition of catalase. In the following, this is expressed as ROS-dependent apoptosis induction. In a further control trial the specific inhibition of SOD by recombinant single domain VHH fragments was verified by the fact that the increasing effect of these fragments on apoptosis induction by exogenously added HOCl was examined, as described in Bauer 2013 (HOCl-dependent singlet oxygen and hydroxyl radical generation modulate and induce apoptosis of malignant cells. Anticancer Res 33: 3589-3602, 2013).
# [3] = system: MKN-45 gastric carcinoma cells; test: Standard preparation for autocrine ROS-controlled apoptosis induction in tumor cells (percentage of apoptotic cells); assay type: cell-based, human
# Description: The experiments shown in FIG. 13-24 were carried out with a standard preparation for the apoptosis induction that is based on the method performed in Heinzelmann and Bauer 2010. The tumor cells used were taken from an optimally growing semi-sealed culture, centrifuged and placed in fresh medium. The test was performed in 96-well cell culture plates with 12 500 MKN-45 cells/100 μl medium or 10 000 SHEP cells/100 μl medium. MKN-45 cells grow in suspension, SHEP cells are adherent. The tests with SHEP cells were started as soon as the cells had grown on. By adding increasing concentrations of single domain VHH fragments that either inhibit catalase or SOD the protection of the tumor cells from their own ROS signaling was annulled so that based on the cell-owned extracellular superoxide anion production the NO/peroxynitrite signal path and the HOCl path (with MKN-45 cells) or in case of the SHEP cells only the NO/peroxynitrite path could start when the cells were incubated at 37° C. The analysis of the signal paths was carried out by the application of inhibitors of the NADPH oxidase (AEBSF), the HOCl scavenger taurine, the peroxynitrite scavenger FeTPPS and the singlet oxygen scavenger histidine. In some experiments for comparison instead of the single domain VHH fragments either recombinant Fab fragments or monoclonal antibodies were applied. This is indicated in the respective illustrations.
# Double preparations were examined at the times shown in the text by means of phase contrast reverse microscopy for the percentage of apoptotic cells. Here, the classical apoptosis criteria described and documented in Heinzelmann and Bauer 2010 such as condensation of the nucleus, fragmentation of the nucleus, and membrane blebbing were used. Per single preparation at least 250 randomly selected cells were examined for the presence of apoptosis features. […]
# human catalase [4] = molecular target: T1, human catalase; test: Check for inhibition (neutralization) of catalase, expressed as ROS-dependent apoptosis induction in cell culture system; assay type: cell-based; set-up: catalase-neutralizing single domain VHH fragments only neutralize the membranous catalase of tumor cells; endogenous in cells; host or cells: MKN-45 human gastric carcinoma cells
# Source text: For the determination of the neutralizing effect of single domain VHH or Fab fragments directed against catalase a test system is suitable that is based on the apoptosis-inducing effect of H2O2 and the degradation of H2O2 by catalase. Here, as the cellular test system both non-malignant and malignant cells can be employed. It is only required that apoptosis induction is quantitatively determinable in the selected cell system. As the H2O2 source, H2O2-generating glucose oxidase (GOX) is preferred over the direct addition of H2O2, because the continuous production of H2O2 by GOX (by using glucose from the culture medium of the cells) allows a very precise adjustment of the H2O2 flux. The test system is based on the inhibition of the apoptosis induction by GOX mediated by catalase and the restoration of the apoptosis induction by catalase-neutralizing single domain VHH or Fab fragments. […] For that, in general depending on the cell system, GOX concentrations between 0.1 and 40 mU/ml are required. In a second step, the concentration of human catalase is determined that is just sufficient to abolish the effect achieved by GOX. […] After successful determination of the suitable concentrations of GOX and catalase then the actual experiment for the determination of the catalase-neutralizing effect of single domain VHH or Fab fragments can be performed. For that, the selected catalase concentration is pre-incubated for 20 minutes with selected concentrations of the single domain VHH or Fab fragments to be tested. Subsequently, said mixture together with the concentration of GOX determined to be suitable is added to the cells and apoptosis induction is measured. A reliable neutralizing effect of the single domain VHH or Fab fragments is obtained if the inhibiting effect of the catalase on the GOX-mediated apoptosis induction was abolished by at least 90%, i.e. if 90% of the apoptosis induction value is achieved that is shown in control preparations without addition of catalase. If there is achieved an abolition of the inhibiting effect of catalase of at least 50% there may be assumed a significant inhibiting effect of the tested single domain VHH or Fab fragment. […]
# […] In a second run, by employing the cell culture system described by Heinzelmann and Bauer (Heinzelmann S. and Bauer G. Multiple protective functions of catalase against intercellular apoptosis-inducing ROS signaling of human tumor cells, Biol. Chem. 391, 675-693, 2010) it was checked which one of the single domain VHH fragments binding to catalase actually results in an inhibition of the catalase, what is expressed as ROS-dependent apoptosis induction in the cells. […] The clones underlying the single domain VHH fragments were sequenced by standard methods and the amino acid sequence was determined therefrom.
# human catalase [5] = molecular target: T1, human catalase; test: ELISA selection of clones binding to human catalase
# Source text: […] […] In a second run, by employing the cell culture system described by Heinzelmann and Bauer (Heinzelmann S. and Bauer G. Multiple protective functions of catalase against intercellular apoptosis-inducing ROS signaling of human tumor cells, Biol. Chem. 391, 675-693, 2010) it was checked which one of the single domain VHH fragments binding to catalase actually results in an inhibition of the catalase, what is expressed as ROS-dependent apoptosis induction in the cells. […] The clones underlying the single domain VHH fragments were sequenced by standard methods and the amino acid sequence was determined therefrom.
# T2 sequence (P00441 2-154 limits assumed): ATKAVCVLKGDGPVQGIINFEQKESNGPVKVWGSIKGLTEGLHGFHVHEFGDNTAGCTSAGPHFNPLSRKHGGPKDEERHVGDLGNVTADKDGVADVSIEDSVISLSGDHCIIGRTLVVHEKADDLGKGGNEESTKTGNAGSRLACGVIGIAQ
Molecule,neutralization (inhibition) of human SOD1 (human SOD1 [1]),binding to human SOD1 (human SOD1 [2]),apoptosis induction in the presence of peroxynitrite scavenger FeTPPS ([3]; 25 μM FeTPPS),apoptosis induction in the presence of NOX1 inhibitor AEBSF ([3]; 100 μM AEBSF),apoptosis induction in the presence of singlet oxygen scavenger histidine ([3]; 2 mM histidine),apoptosis induction in the presence of HOCl scavenger taurine ([3]; 50 mM taurine),"apoptosis induction in combination with 0.005 pg/ml of the complementary single domain VHH fragment ([3]; 3.5 hours, FIG. 18)",concentration at which both signal paths overlap ([3]; FIG. 14),concentration from which no substantial inhibition by FeTPPS but very strong inhibition by taurine (HOCl path) ([3]; FIG. 14),concentrations at which singlet oxygen seems to play a role ([3]; FIG. 14),"concentration range of the second increase of the apoptosis ([3]; FIG. 14, not inhibited by taurine)","optimum range of the apoptosis induction ([3]; FIGS. 14A and B, 3.5 hours)","optimum conc. ([3]; Table 1, concentration necessary for optimum apoptosis induction, taken from FIGS. 13A, 13B, 15A, 15B, 20)","optimum conc. ([3]; Table 2, FIG. 20 experiment, 3.5 hours)","apoptosis induction in MKN-45 cells ([3]; increasing concentrations, 3-4 hours at 37° C., 5% CO2)",ROS signaling path induced ([3]; inhibitor analysis),neutralization (inhibition) of human catalase (human catalase [4]),binding to human catalase (human catalase [5])
B1,do not neutralize it,bind to human SOD1,,,,,,,,,,,,,,,,
B2,,,"only in the left part of the optimum curve results in a strong inhibition and then, changes the optimum curve of apoptosis induction into a plateau curve",inhibited by the NOX1 inhibitor AEBSF in the entire range of concentrations,"does not result in an inhibition of apoptosis, but changes the optimum curve into a plateau curve","does not inhibit in the left range of concentrations of the optimum curve, but then results in a strong inhibition of the apoptosis in the entire further range of the optimum curve",noteworthy synergistic effect,0.37 pg/mL,≥ 0.75 pg/mL,> 0.75 pg/mL,≥ 6.2 pg/mL,0 to 6.2 pg/mL,0.4 pg/mL,0.17 pg/mL,induces apoptosis in the form of an optimum curve and a subsequent second increase,via the NO/peroxynitrite and HOCl path,neutralize it,bind to human catalase
